Biological target: the molecule itself
Assay: SAXS (static); purified subunits alone, pH 7.5, ionic strength 0.5 M; radius of gyration 33 Å

B1: cowpea chlorotic mottle virus (CCMV) capsid protein, dimeric subunit (natural protein)
chain: RVVQPVIVEPIASGQGKAIKAWTGYSVSKWTASCAAAEAKVTSAITISLPNELSSERNKQLKVGRVLLWLGLLPSVSGTVKSCVTETQTTAAASFQVALAVADNSKDVVAAMYPEAFKGITLEQLTADLTIYLYSSAALTEGDVIVHLEVEHVRPTFDDSFTPVY
notes: capsid (coat) protein of cowpea chlorotic mottle virus, extracted from purified virions; 90 dimers make the T = 3 capsid; Protein as it stands in native virions; no tag; also called CCMV subunits; subunits; source: CCMV grown in blackeye cowpea leaves; capsid proteins extracted from purified virions (dialysis against 0.5 M CaCl2, centrifugation at 150,000 x g)
  stoichiometry N: 2
